Square brackets hold non-standard residues; d marks the D form. Ends that are not written are not given here. Peptide text beside a SMILES is read from it. * marks the point of attachment. 1,3‑difluorobenzhydryl = His with a 1-((2,4-difluorophenyl)(phenyl)methyl) group on the imidazole (N1); His(τ-CHPh2) = N[C@@H](Cc1cn(C(c2ccccc2)c2ccccc2)cn1)C(=O)O; Tyr(3-NO2) = N[C@@H](Cc1ccc(O)c([N+](=O)[O-])c1)C(=O)O; Biotin = O=C1N[C@H]2[C@H](CS[C@H]2CCCCC(=O)*)N1; 4‑chlorobenzhydryl = Clc1ccc(C(c2ccccc2)*)cc1; Bip = N[C@@H](Cc1ccc(-c2ccccc2)cc1)C(=O)O; dPhe(4-Br) = N[C@H](Cc1ccc(Br)cc1)C(=O)O; dPhe(4-Me) = Cc1ccc(C[C@@H](N)C(=O)O)cc1; Trt = c1ccc(C(c2ccccc2)(c2ccccc2)*)cc1; dPhe(4-F) = N[C@H](Cc1ccc(F)cc1)C(=O)O; Dmt = Cc1cc(O)cc(C)c1C[C@H](N)C(=O)O; Benzhydryl = c1ccc(C(c2ccccc2)*)cc1; Palmitoyl = CCCCCCCCCCCCCCCC(=O)*; Myristoyl = CCCCCCCCCCCCCC(=O)*; Lauroyl = CCCCCCCCCCCC(=O)*; Decanoyl = CCCCCCCCCC(=O)*; Octanoyl = CCCCCCCC(=O)*; SO3H = O=S(=O)(O)*; Bn = c1ccc(C*)cc1
target: T1, GPR39 (G protein-coupled receptor 39) (Homo sapiens (Human), UniProt O43194 1-453); test: cell-based or functional assay
T1 sequence: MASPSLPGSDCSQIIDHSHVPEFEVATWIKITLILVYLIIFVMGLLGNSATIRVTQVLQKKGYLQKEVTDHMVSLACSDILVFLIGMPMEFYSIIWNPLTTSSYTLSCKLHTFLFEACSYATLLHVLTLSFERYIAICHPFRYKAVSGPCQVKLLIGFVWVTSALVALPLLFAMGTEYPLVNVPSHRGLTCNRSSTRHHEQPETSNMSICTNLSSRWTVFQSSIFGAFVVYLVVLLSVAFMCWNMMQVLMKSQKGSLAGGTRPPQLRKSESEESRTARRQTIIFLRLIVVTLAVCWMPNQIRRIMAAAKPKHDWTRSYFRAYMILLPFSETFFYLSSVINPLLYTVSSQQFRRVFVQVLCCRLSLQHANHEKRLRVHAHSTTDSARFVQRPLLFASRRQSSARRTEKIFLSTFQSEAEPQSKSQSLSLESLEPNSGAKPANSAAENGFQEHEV

Molecule | EC50 (luciferase reporter) [nM] | ECmax (-fold induction over basal)
H(Benzhydryl)K(Octanoyl)[dPhe(4-Me)]Y(SO3H) [HKFY-35] | 280 | 18.9 -fold induction over basal
H(Trt)K(Lauroyl)FY [HKFY-25] | 630 | 7.72 -fold induction over basal
H(Trt)K(Octanoyl)[dPhe(4-Br)]Y [HKFY-29] | 310 | 26.8 -fold induction over basal
H(Trt)K(Octanoyl)FYHQQARF (not fully specified; printed as His(trt)-Lys(caprylic)-Phe-Tyr-His-Gln-Gln-Ala-Arg-Phe) [HKFY-42] | 1580 | 11.8 -fold induction over basal
H(Trt)K(Octanoyl)FYQNQARF (not fully specified; printed as His(trt)-Lys(caprylic)-Phe-Tyr-Gln-Asn-Gln-Ala-Arg-Phe) [HKFY-43] | 1210 | 12.1 -fold induction over basal
H(Trt)K(Octanoyl)[dPhe(4-Me)]Y [HKFY-30] | 8 | 23.9 -fold induction over basal
[dH](Trt)K(Octanoyl)FY [HKFY-4] | 130 | 16.8 -fold induction over basal
H(adamantan‑1‑yl)K(Octanoyl)FY [HKFY-23] | 2600 | 15 -fold induction over basal
Biotin-H(Trt)K(Octanoyl)[Bip]Y [HKFY-45] | 140 | 21 -fold induction over basal
H(Trt)K(Octanoyl)FYSDQQARF (not fully specified; printed as His(trt)-Lys(caprylic)-Phe-Tyr-Ser-Asp-Gln-Gln-Ala-Arg-Phe) [HKFY-38] | 3500 | 16.5 -fold induction over basal
His(Trt)-Lys(Octanoyl)-Phe [HKFY-49] | 320 | 18.3 -fold induction over basal
H(4‑methylbenzhydryl)K(Octanoyl)FY [HKFY-22] | 59800 | 21.3 -fold induction over basal
H(Trt)K(Decanoyl)FY [HKFY-24] | 240 | 7.03 -fold induction over basal
H(Trt)K(Myristoyl)FY [HKFY-26] | 280 | 19.8 -fold induction over basal
H(Trt)K(Octanoyl)FYSQNGARF (not fully specified; printed as His(trt)-Lys(caprylic)-Phe-Tyr-Ser-Gln-Asn-Gly-Ala-Arg-Phe) [HKFY-39] | – | 12.1 -fold induction over basal
GSH(Trt)K(Octanoyl)FY [HKFY-37] | 1840 | 16 -fold induction over basal
[dH](Trt)K(Octanoyl)[dPhe(4-Me)]Y [HKFY-31] | 20 | 20.9 -fold induction over basal
H(Trt)K(Octanoyl)FW [HKFY-46] | 260 | 20 -fold induction over basal
H(Benzhydryl)K(Octanoyl)FY [HKFY-33] | 150 | 20 -fold induction over basal
H(Trt)K(Octanoyl)[dPhe(4-F)]Y [HKFY-28] | 74 | 22.9 -fold induction over basal
H(Trt)K(Palmitoyl)FY [HKFY-27] | 560 | 20.4 -fold induction over basal
H(Bn)K(Octanoyl)FY [HKFY-3] | 4130 | 9.2 -fold induction over basal
H(Trt)K(Octanoyl)FYQNGARF [HKFY-41] | 9550 | 12.2 -fold induction over basal
H(Trt)K(Octanoyl)YF [HKFY-47] | 300 | 13 -fold induction over basal
H(Trt)K(Octanoyl)YY [HKFY-48] | 330 | 14.4 -fold induction over basal
H(Benzhydryl)K(Octanoyl)[dPhe(4-Me)][Dmt] [HKFY-36] | 150 | 9.9 -fold induction over basal
H(Trt)K(Octanoyl)FYW [HKFY-44] | 370 | 20 -fold induction over basal
H(4‑chlorobenzhydryl)K(Octanoyl)FY (not fully specified) [HKFY-21] | 136000 | 18.3 -fold induction over basal
H(1,3‑difluorobenzhydryl)K(Octanoyl)[dPhe(4-Me)]Y [HKFY-32] | 2 | 21.5 -fold induction over basal
H(Trt)K(Octanoyl)FYSHQQARF (not fully specified; printed as His(trt)-Lys(caprylic)-Phe-Tyr-Ser-His-Gln-Gln-Ala-Arg-Phe) [HKFY-40] | 1300 | 13.4 -fold induction over basal

target: T2, GPR39 (Homo sapiens, UniProt O43194); test: not given
T2 sequence (O43194 1-453): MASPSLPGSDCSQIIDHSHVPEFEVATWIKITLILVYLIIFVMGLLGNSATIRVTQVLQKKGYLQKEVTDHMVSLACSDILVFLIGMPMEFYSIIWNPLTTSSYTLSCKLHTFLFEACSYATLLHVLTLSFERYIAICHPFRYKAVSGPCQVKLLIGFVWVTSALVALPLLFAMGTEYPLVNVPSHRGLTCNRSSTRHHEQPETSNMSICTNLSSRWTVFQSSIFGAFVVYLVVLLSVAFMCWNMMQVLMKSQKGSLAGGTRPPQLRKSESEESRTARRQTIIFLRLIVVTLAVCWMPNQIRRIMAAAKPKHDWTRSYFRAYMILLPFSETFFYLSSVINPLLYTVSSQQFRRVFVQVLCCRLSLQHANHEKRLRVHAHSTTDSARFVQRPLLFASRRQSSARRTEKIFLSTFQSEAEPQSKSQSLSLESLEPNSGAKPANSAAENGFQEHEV

Molecule | ECmax (-fold induction over basal)
CCCCCCCC(=O)NCCCC[C@H](NC(=O)[C@@H](N)Cc1cn(Cc2cccc3ccccc23)cn1)C(=O)N[C@@H](Cc1ccccc1)C(=O)N[C@@H](Cc1ccc(O)cc1)C(=O)O [HKFY-10, N2-(Nt-(naphthalen-1-ylmethyl)-L-histidyl)-N6-octanoyl-L-lysyl-L-phenylalanyl-L-tyrosine] | 14 ± 2.12 -fold induction over basal
CCCCCCCC(=O)NCCCC[C@H](NC(=O)[C@@H](N)Cc1cn(C23CC4CC(CC(C4)C2)C3)cn1)C(=O)N[C@@H](Cc1ccccc1)C(=O)N[C@@H](Cc1ccc(O)cc1)C(=O)O [HKFY-23, N2-(Nt-(adamantan-1-yl)-L-histidyl)-N6-octanoyl-L-lysyl-L-phenylalanyl-L-tyrosine] | 15 ± 1.37 -fold induction over basal
CCCCCCCC(=O)NCCCC[C@H](N)C(=O)N[C@@H](Cc1ccccc1)C(=O)N[C@@H](Cc1ccc(O)cc1)C(=O)O [HKFY-54, N6-octanoyl-L-lysyl-L-phenylalanyl-L-tyrosine] (H-Lys(Octanoyl)-Phe-Tyr-OH) | 7.8 ± 2.5 -fold induction over basal
CCCCCCCC(=O)NCCCC[C@H](NC(=O)[C@@H](N)Cc1c[nH]c(-c2ccc(C(C)(C)C)cc2)n1)C(=O)N[C@H](Cc1ccc(C)cc1)C(=O)N[C@@H](Cc1ccc(O)cc1)C(=O)O [HKFY-60, ((R)-2-((S)-2-((S)-2-amino-3-(2-(4-(tert-butyl)phenyl)-1H-imidazol-4-yl)propanamido)-6-octanamidohexanamido)-3-(p-tolyl)propanoyl)-L-tyrosine] | 28.2 ± 2.5 -fold induction over basal
CCCCCCCC(=O)NCCCC[C@H](NC(=O)[C@@H](N)Cc1cn([C@H](c2ccccc2)c2ccc(C)cc2)cn1)C(=O)N[C@@H](Cc1ccccc1)C(=O)N[C@@H](Cc1ccc(O)cc1)C(=O)O [HKFY-22, N6-octanoyl-N2-(Nt-((R)-phenyl(p-tolyl)methyl)-L-histidyl)-L-lysyl-L-phenylalanyl-L-tyrosine] | 21.3 ± 1.8 -fold induction over basal
CCCCCCCC(=O)NCCCC[C@H](NC(=O)[C@@H](N)Cc1cn(C(c2ccccc2)c2ccccc2)cn1)C(=O)N[C@H](Cc1ccc(C)cc1)C(=O)N[C@@H](Cc1ccc(O)c([N+](=O)[O-])c1)C(=O)O [HKFY-68, (S)-2-((R)-2-((S)-2-((S)-2-amino-3-(1-benzhydryl-1H-imidazol-4-yl)propanamido)-6-octanamidohexanamido)-3-(p-tolyl)propanamido)-3-(4-hydroxy-3-nitrophenyl)propanoic acid] (H-[His(τ-CHPh2)]K(Octanoyl)[dPhe(4-Me)][Tyr(3-NO2)]-OH) | 10.8 ± 1.41 -fold induction over basal
